From patent US20260219283A1
“And” between values parts separate entries of the source, which are not always exact repeats. Identical values can stand only once.

Target: semi-synthetic pS129-α-synuclein (Proteos Inc.) (Homo sapiens (Human)) (UniProt P37840)
Experiment: sandwich ECLIA, freshly prepared pS129-α-syn standard at 100 ng/mL

ECLIA signal at 100 ng/mL standard: 500000 and 1.1e+06
Substance: anti-pS129-α-syn monoclonal antibody EP1536Y
